Read-outs that look alike come from different tables or passages of the source.
Tests used:
rat HER3 = biological target: T1, rat HER3 (rat, UniProt Q62799 20-641, limits assumed); test: ELISA, plate coated with 0.1 ug/ml rat HER3, antibody titrated, absorbance 450 nm
T1 construct: also called rat homologue of HER3 (Sino Biological Inc.); R. norvegicus HER3
Method: (§1) ELISAs were used to determine the binding specificity of the antibodies. The antibodies were analysed for binding to human HER3 polypeptide, as well as respective mouse, rat and monkey homologues of HER3 (Sino Biological Inc., China). The antibodies were also analysed for their ability to bind to human EGFR and human HER2 (Sino Biological Inc., China).
(§2) ELISAs were carried out according to standard protocols. Briefly, 96-well plates (Nunc, Denmark) were coated with 0.1 μg/ml of target polypeptide in phosphate-buffered saline (PBS) for 16 h at 4° C. After blocking for 1 h with 1% BSA in Tris buffer saline (TBS) at room temperature, the anti-HER3 antibody was serially diluted with the highest concentration being 10 μg/ml, and added to the plate. Post 1 h incubation at room temperature, plates were washed three times with TBS containing 0.05% Tween 20 (TBS-T) and were then incubated with a HRP-conjugated […] antibody (Life Technologies, Inc., USA) for 1 h at room temperature. After washing, plates were developed with colorimetric detection substrate 3,3′,5,5′-tetramethylbenzidine (Turbo-TMB; Pierce, USA) for 10 min. The reaction was stopped with 2M H₂SO₄, and OD was measured at 450 nm.

human HER3 polypeptide [1] = biological target: T2, human HER3 polypeptide (human, UniProt P21860 20-643); test: ELISA, plate coated with 0.1 ug/ml human HER3, antibody titrated, absorbance 450 nm
T2 construct: Recombinant antigen of the ELISAs; also called human HER3 (Sino Biological Inc.); human antigen HER3
Method: as §1, §2

human HER3 polypeptide [2] = biological target: T2, human HER3 polypeptide; test: as above; remark: listed apart in the source
Method: as §1, §2

mouse HER3 = biological target: T3, mouse HER3 (mouse, UniProt Q61526 20-641); test: ELISA, plate coated with 0.1 ug/ml mouse HER3, antibody titrated, absorbance 450 nm
T3 construct: also called mouse homologue of HER3 (Sino Biological Inc.); M. musculus HER3
T3 sequence (Q61526 20-641 limits assumed): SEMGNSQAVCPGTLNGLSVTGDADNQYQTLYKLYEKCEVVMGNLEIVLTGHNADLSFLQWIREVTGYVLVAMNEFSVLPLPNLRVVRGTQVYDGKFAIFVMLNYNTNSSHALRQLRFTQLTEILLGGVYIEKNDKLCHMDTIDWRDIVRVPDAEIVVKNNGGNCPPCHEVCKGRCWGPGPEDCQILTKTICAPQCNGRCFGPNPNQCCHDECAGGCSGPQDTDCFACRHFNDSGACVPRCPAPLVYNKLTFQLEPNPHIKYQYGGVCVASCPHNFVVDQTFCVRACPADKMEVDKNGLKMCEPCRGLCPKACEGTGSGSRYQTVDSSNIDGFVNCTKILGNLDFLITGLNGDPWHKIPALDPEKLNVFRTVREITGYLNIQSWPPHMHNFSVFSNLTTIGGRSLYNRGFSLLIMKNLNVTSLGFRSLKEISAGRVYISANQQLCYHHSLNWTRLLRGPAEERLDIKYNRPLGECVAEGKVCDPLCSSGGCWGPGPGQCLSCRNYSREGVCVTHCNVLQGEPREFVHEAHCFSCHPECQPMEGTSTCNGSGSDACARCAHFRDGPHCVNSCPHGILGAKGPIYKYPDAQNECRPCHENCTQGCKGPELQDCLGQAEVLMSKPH
Method: as §1, §2

human EGFR = biological target: T4, human EGFR (human, UniProt P00533 25-645); test: ELISA, plate coated with 0.1 ug/ml human EGFR, antibody titrated, absorbance 450 nm
T4 construct: also called human HER1 (EGFR) (Sino Biological Inc.)
Method: as §1, §2

human HER2 = biological target: T5, human HER2 (human, UniProt P04626 23-652); test: ELISA, plate coated with 0.1 ug/ml human HER2, antibody titrated, absorbance 450 nm
T5 construct: also called human HER2 (Sino Biological Inc.)
Method: as §1, §2

cynomolgus macaque HER3 = biological target: T6, cynomolgus macaque HER3 (cynomolgus macaque, UniProt G7PIG5 20-643); test: ELISA, plate coated with 0.1 ug/ml cynomolgus HER3, antibody titrated, absorbance 450 nm
T6 construct: also called monkey homologue of HER3 (Sino Biological Inc.); HER3 cyno
T6 sequence (G7PIG5 entry or part of it): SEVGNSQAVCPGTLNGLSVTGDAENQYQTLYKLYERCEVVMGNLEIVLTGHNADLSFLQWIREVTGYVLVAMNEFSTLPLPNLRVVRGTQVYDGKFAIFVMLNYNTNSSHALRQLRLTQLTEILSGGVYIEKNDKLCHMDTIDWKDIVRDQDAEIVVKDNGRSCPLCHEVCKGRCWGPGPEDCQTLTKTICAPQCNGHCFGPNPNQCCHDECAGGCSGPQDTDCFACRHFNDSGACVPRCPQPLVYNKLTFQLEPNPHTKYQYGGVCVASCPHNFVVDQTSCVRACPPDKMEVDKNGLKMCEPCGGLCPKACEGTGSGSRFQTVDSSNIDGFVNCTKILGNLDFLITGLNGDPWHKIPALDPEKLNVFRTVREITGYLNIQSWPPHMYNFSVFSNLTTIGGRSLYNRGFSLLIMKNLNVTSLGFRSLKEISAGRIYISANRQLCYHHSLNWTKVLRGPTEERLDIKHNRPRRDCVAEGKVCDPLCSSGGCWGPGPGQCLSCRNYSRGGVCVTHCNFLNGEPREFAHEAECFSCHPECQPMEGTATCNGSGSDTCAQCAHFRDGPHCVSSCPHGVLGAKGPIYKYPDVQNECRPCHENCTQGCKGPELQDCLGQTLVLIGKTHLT
Method: as §1, §2

[3] = biological target: T7, His-tagged FcγRIIIa (V158) (human, UniProt P08637 17-208); test: Bio-Layer Interferometry; His-tagged FcγRIIIa (V158) on anti-Penta-HIS tips, antibody in solution
T7 construct: not shown: His tag
Method: (§3) All measurements were performed at 25° C. with agitation at 1000 rpm. […] Sensograms were referenced for buffer effects and then fitted using the Octet QK384 user software (Pall ForteBio, USA). Kinetic responses were subjected to a global fitting using a one site binding model to obtain values for association (Kₒₙ), dissociation (Koff) rate constants and the equilibrium dissociation constant (KD). Only curves that could be reliably fitted with the software (R²>0.90) were included in the analysis.
BLI was performed as described above.

His-tagged human HER3 [4] = biological target: T8, His-tagged human HER3 (human, UniProt P21860 20-643); test: BLI (Octet QK384), antibody on anti-human IgG capture tips, His-tagged human HER3 in solution, global one-site fit
T8 construct: Antigen of the BLI experiments and of the HER2-Fc dimerisation ELISA; also called HER3 His; not shown: His tag
Method: as §3, with “The anti-HER3 antibody clones in IgG1 format were analysed for binding affinity to human HER3. Bio-Layer Interferometry (BLI) experiments were performed using the Octet QK384 system (ForteBio). anti-Human IgG Capture (AHC) Octet sensor tips (Pall ForteBio, USA) were used to anti-HER3 antibodies (25 nM). All” for “All”

[5] = biological target: T9, human HER3 expressed on cells (HEK293 HER3 O/E cells) (human, UniProt P21860 20-1342); test: flow cytometry on HEK293T HER3 O/E cells, 10 ug antibody as printed, FITC-conjugated anti-Fc secondary
T9 construct: Also used here for HER3 on U2OS cells of the PathHunter kit and on cancer cell lines; also called HEK293 cells transfected with vector encoding human HER3; human HER3-expressing cells
Method: The cells were washed with buffer (PBS with 2 mM EDTA and 0.5% BSA) and resuspended in FITC-conjugated anti-FC antibody (Invitrogen, USA) at 10 μg/ml for 20 min at 4° C. Cells were washed again and resuspended in 200 μL of FACS flow buffer (PBS with 5 mM EDTA) for flow cytometric analysis using MACSQuant 10 (Miltenyi Biotec, Germany). Unstained WT and transfected HEK293 cells were included in the analysis as negative controls. After acquisition, all raw data were analyzed using Flowlogic software. Cells were gated using forward and side scatter profile percentage of positive cells was determined for native and overexpressing cell populations.

His-tagged human HER3 [6] = biological target: T8, His-tagged human HER3; test: BLI (Octet QK384), antibody on anti-human IgG capture tips, His-tagged human HER3 35-278 nM, global 1:1 fit; kdis Error 1.56E-04
Method: as §3, with “The anti-HER3 antibody clones in IgG1 format were analysed for binding affinity to human HER3. Bio-Layer Interferometry (BLI) experiments were performed using the Octet QK384 system (ForteBio). anti-Human IgG Capture (AHC) Octet sensor tips (Pall ForteBio, USA) were used to anti-HER3 antibodies (25 nM). All” for “All”

[7] = biological target: T9, human HER3 expressed on cells (HEK293 …); test: flow cytometry, HEK293 cells overexpressing human HER3, 20 ug/ml antibody, FITC anti-Fc secondary; same antibody on WT HEK293: 0.60
Method: (§4) The cells were washed thrice with FACS buffer (PBS with 5 mM EDTA and 0.5% BSA) and resuspended in FITC-conjugated anti-FC antibody (Invitrogen, USA) for 40 min at 2-8° C. Cells were washed again and resuspended in 200 μL of FACS flow buffer (PBS with 5 mM EDTA) for flow cytometric analysis using MACSQuant 10 (Miltenyi Biotec, Germany). After acquisition, all raw data were analyzed using Flowlogic software. Cells were gated using forward and side scatter profile percentage of positive cells was determined for native and overexpressing cell populations.

[8] = biological target: T9, human HER3 expressed on cells (HEK293 …); test: as above; remark: listed apart in the source
Method: as §4

His-tagged human HER3 [9] = biological target: T8, His-tagged human HER3; test: BLI (Octet QK384), antibody on anti-human IgG capture tips, His-tagged human HER3 in solution, global 1:1 fit, R^2 = 0.9898, kon Error 8.22E+03; Response 0.0794 / 0.1744 / 0.3278 / 0.5079 at 35 / 69 / 139 / 278 nM
Method: as §3, with “The anti-HER3 antibody clones in IgG1 format were analysed for binding affinity to human HER3. Bio-Layer Interferometry (BLI) experiments were performed using the Octet QK384 system (ForteBio). anti-Human IgG Capture (AHC) Octet sensor tips (Pall ForteBio, USA) were used to anti-HER3 antibodies (25 nM). All” for “All”

human HER3 polypeptide [10] = biological target: T2, human HER3 polypeptide; test: ELISA, plate coated with human HER3, antibody titrated, absorbance 450 nm, x axis Log([Ab]) (ug/ml)
His-tagged human HER3 [11] = biological target: T8, His-tagged human HER3; test: BLI (Octet QK384), antibody on anti-human IgG capture tips, His-tagged human HER3 35-278 nM, global 1:1 fit
Method: as §3, with “The anti-HER3 antibody clones in IgG1 format were analysed for binding affinity to human HER3. Bio-Layer Interferometry (BLI) experiments were performed using the Octet QK384 system (ForteBio). anti-Human IgG Capture (AHC) Octet sensor tips (Pall ForteBio, USA) were used to anti-HER3 antibodies (25 nM). All” for “All”

[12] = biological target: T9, human HER3 expressed on cells (HEK293 …); test: flow cytometry, HEK293 cells overexpressing human HER3 (293_OE HER3), 20 ug/ml antibody, FITC anti-Fc secondary; same antibody on 293 cells: 2.48; unstained 293: 0.14
Method: as §4

His-tagged human HER3 [13] = biological target: T8, His-tagged human HER3; test: BLI (Octet QK384), antibody on anti-human IgG capture tips, His-tagged human HER3 in solution, global 1:1 fit, R^2 = 0.9891, kon Error 1.04E+04; Response 0.1355 / 0.3221 / 0.4533 / 0.5944 at 35 / 39 (as printed in the table; graph label 69) / 139 / 278 nM
Method: as §3, with “The anti-HER3 antibody clones in IgG1 format were analysed for binding affinity to human HER3. Bio-Layer Interferometry (BLI) experiments were performed using the Octet QK384 system (ForteBio). anti-Human IgG Capture (AHC) Octet sensor tips (Pall ForteBio, USA) were used to anti-HER3 antibodies (25 nM). All” for “All”

His-tagged human HER3 [14] = biological target: T8, His-tagged human HER3; test: BLI (Octet QK384), antibody on anti-human IgG capture tips, His-tagged human HER3 35-278 nM, global 1:1 fit; kdis Error 1.11E-04
Method: as §3, with “The anti-HER3 antibody clones in IgG1 format were analysed for binding affinity to human HER3. Bio-Layer Interferometry (BLI) experiments were performed using the Octet QK384 system (ForteBio). anti-Human IgG Capture (AHC) Octet sensor tips (Pall ForteBio, USA) were used to anti-HER3 antibodies (25 nM). All” for “All”

[15] = biological target: T9, human HER3 expressed on cells (HEK293 …); test: flow cytometry, HEK293 cells overexpressing human HER3 (293_OE HER3), 20 ug/ml antibody, FITC anti-Fc secondary; same antibody on 293 cells: 5.38; unstained 293: 0.14
Method: as §4

His-tagged human HER3 [16] = biological target: T8, His-tagged human HER3; test: BLI (Octet QK384), antibody on anti-human IgG capture tips, His-tagged human HER3 in solution, global 1:1 fit, R^2 = 0.9917, kon Error 9.57E+03; Response 0.1296 / 0.2851 / 0.4098 / 0.5575 at 35 / 69 / 139 / 278 nM
Method: as §3, with “The anti-HER3 antibody clones in IgG1 format were analysed for binding affinity to human HER3. Bio-Layer Interferometry (BLI) experiments were performed using the Octet QK384 system (ForteBio). anti-Human IgG Capture (AHC) Octet sensor tips (Pall ForteBio, USA) were used to anti-HER3 antibodies (25 nM). All” for “All”

T1 sequence (Q62799 20-641 limits assumed): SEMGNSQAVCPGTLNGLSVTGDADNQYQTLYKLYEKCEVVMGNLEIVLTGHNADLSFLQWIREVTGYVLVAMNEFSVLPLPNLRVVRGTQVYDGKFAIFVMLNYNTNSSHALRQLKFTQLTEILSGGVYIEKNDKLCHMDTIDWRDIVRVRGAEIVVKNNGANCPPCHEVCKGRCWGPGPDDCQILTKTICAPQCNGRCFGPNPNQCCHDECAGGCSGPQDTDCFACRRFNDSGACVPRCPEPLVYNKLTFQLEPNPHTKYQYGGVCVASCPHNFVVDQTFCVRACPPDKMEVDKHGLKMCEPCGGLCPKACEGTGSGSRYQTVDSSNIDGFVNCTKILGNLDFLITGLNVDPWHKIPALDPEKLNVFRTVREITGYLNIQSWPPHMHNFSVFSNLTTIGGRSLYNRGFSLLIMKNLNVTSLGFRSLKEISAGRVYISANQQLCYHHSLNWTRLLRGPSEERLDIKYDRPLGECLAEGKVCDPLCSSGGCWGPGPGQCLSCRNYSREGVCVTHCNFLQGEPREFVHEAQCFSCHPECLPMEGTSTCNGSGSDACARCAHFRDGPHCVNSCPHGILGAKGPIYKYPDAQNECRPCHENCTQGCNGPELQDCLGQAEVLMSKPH

B1: anti-HER3 clone 10D1 IgG1 (antibody)
heavy: not shown
light: DIVMTQSQKFMSTSVGDRVSVTCKASQIVGSNVAWYQQKPGQSPKPLIYSASYRYSGVPDRFTASGSGTDFTLTITNVQSEDLAEYFCQQYSSHPLTFGAGTKLELKRTVAAPSVFIFPPSDEQLKSGTASVVCLLNNFYPREAKVQWKVDNALQSGNSQESVTEQDSKDSTYSLSSTLTLSKADYEKHKVYACEVTHQGLSSPVTKSFNRGEC
notes: Mouse variable regions on human IgG1/kappa constant regions (human-mouse chimeric antibody); also called 10D1P; 10D1 (parental)
EC50 (rat HER3): 0.372 nM
EC50 (human HER3 polypeptide [1]): 0.00588 nM
EC50 (human HER3 polypeptide [2]): 0.00588 nM
EC50 (mouse HER3): 0.137 nM
binding result (human EGFR): no binding (tested: log(M) about -6.7)
binding result (human HER2): no binding (tested: log(M) about -6.7)
EC50 (cynomolgus macaque HER3): 0.00368 nM
Kd [3]: 298 nM
koff [3]: 0.04 s⁻¹
kon [3]: 130000 M⁻¹ s⁻¹
Kd (His-tagged human HER3 [4]): 9.58 nM
% Parent (HER3 positive) [5]: 65.7%
koff (His-tagged human HER3 [6]): 0.00173 s⁻¹
% Parent (HER3 positive) [7]: 99%
% Parent (HER3 positive) [8]: 99%
kon (His-tagged human HER3 [9]): 180000 M⁻¹ s⁻¹

B2: anti-HER3 clone 10D1_c90 IgG1 (antibody, V domains shown)
VH: QVQLQESGPGLVKPSQTLFLTCTVSGYSITSGYSWHWIRQHPGKGLEWIGSIRYSGGTDYNPSLKSLVTISVDTSKNQFSLKLSSVTAADTAVYYCARMTTAPWYPFDYWGQGTTVTVSS
VL: DIQMTQSPSSVSASVGDRVTFTCKASQIVGSNVAWYQQKPGKAPEPLIYSASYLYSSVPSRFSGSGSGTEFTMTISSLEPEDFATYYCQQYTTHPLTFGPGTKVEIKR
notes: Humanised 10D1 variant, IgG1/kappa
Kd (His-tagged human HER3 [4]): < 0.001 nM
EC50 (read off the curve) (human HER3 polypeptide [10]): ~7 ng/mL
koff (His-tagged human HER3 [11]): < 1e-07 s⁻¹
% Parent (HER3 positive) [12]: 41.8%
kon (His-tagged human HER3 [13]): 252000 M⁻¹ s⁻¹

B3: anti-HER3 clone 10D1_c91 IgG1 (antibody, V domains shown)
VH: QVQLQESGPGLVKPSQTLSLTCTVSGYYITSGYSWHWIRQHPGKGLEWIGSIRYSGGTDYNPSLKSLATISADTSKNQFSLKLSSVTAADTAVYYCARMTTAPWYPFDYWGQGTAVTVSS
VL: DIQMTQSPSSVSASVGDRVTITCKASQIVGSNVAWYQQKPGKAPMPLIYSASYGYSGVPSRFSGSGSGTDFTLTISSLQPEDFATYYCQQYSSHPLTFGQGTKLEIKR
notes: as for B2
Kd (His-tagged human HER3 [4]): 0.176 nM
EC50 (read off the curve) (human HER3 polypeptide [10]): ~5 ng/mL
koff (His-tagged human HER3 [14]): 4.73e-05 s⁻¹
% Parent (HER3 positive) [15]: 48%
kon (His-tagged human HER3 [16]): 269000 M⁻¹ s⁻¹

Reference: patent US20250122303A1 (HUMMINGBIRD BIOSCIENCE PTE, published 2025)
